# From patent publication US20260098059A1 (ENDOMET BIOSCIENCES, published 2026)
# “And” between values parts separate entries of the source, which are not always exact repeats. Equal values may be shown once. Bridges are numbered along the chain shown (N, C = ends). Where no end group is shown, it is not given here. [ ]: non-standard residue; d: D form. Cha = N[C@@H](CC1CCCCC1)C(=O)O; Chg = N[C@H](C(=O)O)C1CCCCC1; NMeA = CN[C@@H](C)C(=O)O; Abu = CC[C@H](N)C(=O)O
# T1: β-catenin (UniProt P35222 134-665, limits assumed, biotinylated in the SPR and plate assays)
# T1 construct: also called beta catenin; biotinylated β-catenin
# T1 sequence (looked up): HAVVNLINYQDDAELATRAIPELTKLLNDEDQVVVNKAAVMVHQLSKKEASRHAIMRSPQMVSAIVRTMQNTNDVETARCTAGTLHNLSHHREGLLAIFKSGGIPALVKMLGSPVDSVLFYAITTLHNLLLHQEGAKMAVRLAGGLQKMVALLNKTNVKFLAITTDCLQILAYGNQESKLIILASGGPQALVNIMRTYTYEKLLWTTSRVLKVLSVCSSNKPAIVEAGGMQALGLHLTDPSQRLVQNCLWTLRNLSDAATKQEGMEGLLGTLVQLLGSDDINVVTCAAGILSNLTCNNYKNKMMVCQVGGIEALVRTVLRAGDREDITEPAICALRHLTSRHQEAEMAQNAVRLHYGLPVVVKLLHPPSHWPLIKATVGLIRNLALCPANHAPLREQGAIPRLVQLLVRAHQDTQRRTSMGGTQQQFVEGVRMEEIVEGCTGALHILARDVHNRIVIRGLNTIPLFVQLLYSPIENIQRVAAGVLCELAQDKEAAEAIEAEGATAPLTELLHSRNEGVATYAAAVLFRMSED
# Molecular target: T1, β-catenin
# Experiment: competitive FP
# Source text: Fluorescence polarization (FP) is another method used to analyze protein-ligand interactions. This methodology measures the change in fluorescence light emitted by a labelled compound free vs. conjugated to another compound in solution. Upon binding of the fluorescent molecule to a complex, polarization increases because of limited rotation of the fluorescent tracer. Competitive FP is often utilized in drug screens as it is formatted for high throughput screens in a plate format. This immunoassay is performed by introducing a non-conjugated drug to compete for binding to the labelled competitor-ligand complex, leading to a reduction in polarization. […] Exemplary methodology is described in Example 13. Data were analyzed and plotted in Microsoft Excel (Microsoft, Redmond, WA).
# Varying concentrations of β-catenin inhibitor candidate (SEQ ID NO: 404) were then added in a series of serial dilutions from 10 nM to 30 uM of inhibitor in different wells of the plate. The fluorescence polarization was read by Infinite M1000 (Tecan, Baldwin Park CA) at excitation wavelength of 470 nm and measured at emission wavelength of 520 nm. […] The experiments were performed three times and data were analyzed and plotted in Microsoft Excel (Microsoft, Redmond, WA).
row,Binder,Kd
1,"KWFLIXAWD (HELM PEPTIDE1{K.W.F.L.I.[Abu].A.W.D}$PEPTIDE1,PEPTIDE1,1:R3-9:R3$$$V2.0; SMILES CC[C@@H]1NC(=O)[C@H]([C@@H](C)CC)NC(=O)[C@H](CC(C)C)NC(=O)[C@H](Cc2ccccc2)NC(=O)[C@H](Cc2c[nH]c3ccccc23)NC(=O)[C@@H](N)CCCCNC(=O)C[C@@H](C(=O)O)NC(=O)[C@H](Cc2c[nH]c3ccccc23)NC(=O)[C@H](C)NC1=O) [SEQ ID NO: 244]",> 400 nM and ≤ 1000 nM
2,"WAQXILDEHGQRVWG (HELM PEPTIDE1{[ac].W.[meA].Q.[Orn].I.L.D.E.H.[O=C([C@@H](N[*:1])C1CCCCC1)[*:2]].Q.R.V.W.G.[am]}$PEPTIDE1,PEPTIDE1,5:R3-9:R3$$$V2.0; SMILES CC[C@H](C)[C@@H]1NC(=O)[C@@H](NC(=O)[C@H](CCC(N)=O)NC(=O)[C@H](C)N(C)C(=O)[C@H](Cc2c[nH]c3ccccc23)NC(C)=O)CCCNC(=O)CC[C@@H](C(=O)N[C@@H](Cc2c[nH]cn2)C(=O)N[C@H](C(=O)N[C@@H](CCC(N)=O)C(=O)N[C@@H](CCCNC(=N)N)C(=O)N[C@H](C(=O)N[C@@H](Cc2c[nH]c3ccccc23)C(=O)NCC(N)=O)C(C)C)C2CCCCC2)NC(=O)[C@H](CC(=O)O)NC(=O)[C@H](CC(C)C)NC1=O) [SEQ ID NO: 424]",≤ 400 nM
3,"XWFLICAWD (HELM PEPTIDE1{[O=C(CCCCCN[*:1])[*:2]].W.F.L.I.C.A.W.D}$PEPTIDE1,PEPTIDE1,1:R1-9:R3$$$V2.0; SMILES CC[C@H](C)[C@@H]1NC(=O)[C@H](CC(C)C)NC(=O)[C@H](Cc2ccccc2)NC(=O)[C@H](Cc2c[nH]c3ccccc23)NC(=O)CCCCCNC(=O)C[C@@H](C(=O)O)NC(=O)[C@H](Cc2c[nH]c3ccccc23)NC(=O)[C@H](C)NC(=O)[C@H](CS)NC1=O) [SEQ ID NO: 245]",≤ 400 nM
4,"WAQXILDEHGQRVWG (HELM PEPTIDE1{W.[meA].Q.[Orn].I.L.D.E.H.[O=C([C@@H](N[*:1])C1CCCCC1)[*:2]].Q.R.V.W.G.[am]}$PEPTIDE1,PEPTIDE1,4:R3-8:R3$$$V2.0; SMILES CC[C@H](C)[C@@H]1NC(=O)[C@@H](NC(=O)[C@H](CCC(N)=O)NC(=O)[C@H](C)N(C)C(=O)[C@@H](N)Cc2c[nH]c3ccccc23)CCCNC(=O)CC[C@@H](C(=O)N[C@@H](Cc2c[nH]cn2)C(=O)N[C@H](C(=O)N[C@@H](CCC(N)=O)C(=O)N[C@@H](CCCNC(=N)N)C(=O)N[C@H](C(=O)N[C@@H](Cc2c[nH]c3ccccc23)C(=O)NCC(N)=O)C(C)C)C2CCCCC2)NC(=O)[C@H](CC(=O)O)NC(=O)[C@H](CC(C)C)NC1=O) [SEQ ID NO: 423]",> 400 nM and ≤ 1000 nM
5,"XWFLIXAWD (HELM PEPTIDE1{[O=C(CCCCCN[*:1])[*:2]].W.F.L.I.[Abu].A.W.D}$PEPTIDE1,PEPTIDE1,1:R1-9:R3$$$V2.0; SMILES CC[C@@H]1NC(=O)[C@H]([C@@H](C)CC)NC(=O)[C@H](CC(C)C)NC(=O)[C@H](Cc2ccccc2)NC(=O)[C@H](Cc2c[nH]c3ccccc23)NC(=O)CCCCCNC(=O)C[C@@H](C(=O)O)NC(=O)[C@H](Cc2c[nH]c3ccccc23)NC(=O)[C@H](C)NC1=O) [SEQ ID NO: 246]",≤ 400 nM
6,"WAQEILDKHGQRVWG (HELM PEPTIDE1{[ac].W.[meA].Q.E.I.L.D.K.H.[O=C([C@@H](N[*:1])C1CCCCC1)[*:2]].Q.R.V.W.G.[am]}$PEPTIDE1,PEPTIDE1,5:R3-9:R3$$$V2.0; SMILES CC[C@H](C)[C@@H]1NC(=O)[C@@H](NC(=O)[C@H](CCC(N)=O)NC(=O)[C@H](C)N(C)C(=O)[C@H](Cc2c[nH]c3ccccc23)NC(C)=O)CCC(=O)NCCCC[C@@H](C(=O)N[C@@H](Cc2c[nH]cn2)C(=O)N[C@H](C(=O)N[C@@H](CCC(N)=O)C(=O)N[C@@H](CCCNC(=N)N)C(=O)N[C@H](C(=O)N[C@@H](Cc2c[nH]c3ccccc23)C(=O)NCC(N)=O)C(C)C)C2CCCCC2)NC(=O)[C@H](CC(=O)O)NC(=O)[C@H](CC(C)C)NC1=O) [SEQ ID NO: 426]",≤ 400 nM
7,"WAQKILDEHGXRVWG (HELM PEPTIDE1{[ac].W.[meA].Q.K.I.L.D.E.H.[O=C([C@@H](N[*:1])C1CCCCC1)[*:2]].[Aib].R.V.W.G.[am]}$PEPTIDE1,PEPTIDE1,5:R3-9:R3$$$V2.0; SMILES CC[C@H](C)[C@@H]1NC(=O)[C@@H](NC(=O)[C@H](CCC(N)=O)NC(=O)[C@H](C)N(C)C(=O)[C@H](Cc2c[nH]c3ccccc23)NC(C)=O)CCCCNC(=O)CC[C@@H](C(=O)N[C@@H](Cc2c[nH]cn2)C(=O)N[C@H](C(=O)NC(C)(C)C(=O)N[C@@H](CCCNC(=N)N)C(=O)N[C@H](C(=O)N[C@@H](Cc2c[nH]c3ccccc23)C(=O)NCC(N)=O)C(C)C)C2CCCCC2)NC(=O)[C@H](CC(=O)O)NC(=O)[C@H](CC(C)C)NC1=O) [SEQ ID NO: 414]",≤ 400 nM
8,"WAQXILDEHGQRVWG (HELM PEPTIDE1{[CCCCCCCCC(=O)[*:2]].W.[meA].Q.[Orn].I.L.D.E.H.[O=C([C@@H](N[*:1])C1CCCCC1)[*:2]].Q.R.V.W.G.[am]}$PEPTIDE1,PEPTIDE1,5:R3-9:R3$$$V2.0; SMILES CCCCCCCCC(=O)N[C@@H](Cc1c[nH]c2ccccc12)C(=O)N(C)[C@@H](C)C(=O)N[C@@H](CCC(N)=O)C(=O)N[C@H]1CCCNC(=O)CC[C@@H](C(=O)N[C@@H](Cc2c[nH]cn2)C(=O)N[C@H](C(=O)N[C@@H](CCC(N)=O)C(=O)N[C@@H](CCCNC(=N)N)C(=O)N[C@H](C(=O)N[C@@H](Cc2c[nH]c3ccccc23)C(=O)NCC(N)=O)C(C)C)C2CCCCC2)NC(=O)[C@H](CC(=O)O)NC(=O)[C@H](CC(C)C)NC(=O)[C@H]([C@@H](C)CC)NC1=O) [SEQ ID NO: 425]",≤ 400 nM
9,"AWAQKILDEHGQRVWG (HELM PEPTIDE1{[ac].[bAla].W.[meA].Q.K.I.L.D.E.H.[O=C([C@@H](N[*:1])C1CCCCC1)[*:2]].Q.R.V.W.G.[am]}$PEPTIDE1,PEPTIDE1,6:R3-10:R3$$$V2.0; SMILES CC[C@H](C)[C@@H]1NC(=O)[C@@H](NC(=O)[C@H](CCC(N)=O)NC(=O)[C@H](C)N(C)C(=O)[C@H](Cc2c[nH]c3ccccc23)NC(=O)CCNC(C)=O)CCCCNC(=O)CC[C@@H](C(=O)N[C@@H](Cc2c[nH]cn2)C(=O)N[C@H](C(=O)N[C@@H](CCC(N)=O)C(=O)N[C@@H](CCCNC(=N)N)C(=O)N[C@H](C(=O)N[C@@H](Cc2c[nH]c3ccccc23)C(=O)NCC(N)=O)C(C)C)C2CCCCC2)NC(=O)[C@H](CC(=O)O)NC(=O)[C@H](CC(C)C)NC1=O) [SEQ ID NO: 419]",≤ 400 nM
10,W[NMeA]QEILDKH[Chg]QRVWG-NH2 (lactam 4-8; not fully specified (N-terminus); printed as H17C8C(O)NH-W-NMeA-QE*ILDK*H-Chg-QRVWG-NH2) [SEQ ID NO: 427],≤ 400 nM
11,"WAXKILDEHGQRVWG (HELM PEPTIDE1{W.[meA].[Aib].K.I.L.D.E.H.[O=C([C@@H](N[*:1])C1CCCCC1)[*:2]].Q.R.V.W.G.[am]}$PEPTIDE1,PEPTIDE1,4:R3-8:R3$$$V2.0; SMILES CC[C@H](C)[C@@H]1NC(=O)[C@@H](NC(=O)C(C)(C)NC(=O)[C@H](C)N(C)C(=O)[C@@H](N)Cc2c[nH]c3ccccc23)CCCCNC(=O)CC[C@@H](C(=O)N[C@@H](Cc2c[nH]cn2)C(=O)N[C@H](C(=O)N[C@@H](CCC(N)=O)C(=O)N[C@@H](CCCNC(=N)N)C(=O)N[C@H](C(=O)N[C@@H](Cc2c[nH]c3ccccc23)C(=O)NCC(N)=O)C(C)C)C2CCCCC2)NC(=O)[C@H](CC(=O)O)NC(=O)[C@H](CC(C)C)NC1=O) [SEQ ID NO: 417]",≤ 400 nM
12,H-RKKRRQRRR[Peg2]KW[Cha]LI[Abu]AWD-OH [SEQ ID NO: 282/493],≤ 400 nM
